According to article PMC5513711, “Noroviruses Co-opt the Function of Host Proteins VAPA and VAPB for Replication via a Phenylalanine–Phenylalanine-Acidic-Tract-Motif Mimic in Nonstructural Viral Protein NS1/2” (mBio, 2017):

B1: VAPA fragment (133–226), isolated coiled-coil domain (domain or fragment)
chain: PNENDKLNDMEPSKAVPLNASKQDGPLPKPHSVSLNDTETRKLMEECKRLQGEMMKLSEENRHLRDEGLRLRKVAHSDKPGSTSAVSFRDNVTS
notes: murine VAPA, linker and coiled-coil domain, residues 133-226; also called coiled-coil domain (P133–S226 of VAPA); CCD; source: E. coli, purified
B2: VAPA MSP domain with linker and coiled-coil domain (8–226) (domain or fragment)
chain: MAKHEQILVLDPPSDLKFKGPFTDVVTTNLKLQNPSDRKVCFKVKTTAPRRYCVRPNSGIIDPGSIVTVSVMLQPFDYDPNEKSKHKFMVQTIFAPPNISDMEAVWKEAKPDELMDSKLRCVFEMPNENDKLNDMEPSKAVPLNASKQDGPLPKPHSVSLNDTETRKLMEECKRLQGEMMKLSEENRHLRDEGLRLRKVAHSDKPGSTSAVSFRDNVTS
notes: murine VAPA, MSP domain with linker and coiled-coil domain, residues 8-226; Natural abundance (unlabeled) in the titrations of 15N NS1; also called VAPA (M8–S226 of VAPA); unlabeled VAPA; source: E. coli, purified

Legend:
[1] = target: the molecule itself; experiment: not stated; VAPA 133-226 in solution; dimeric size, method not given
[2] = target: the molecule itself; experiment: SEC + other: diffusion NMR; VAPA 8-226 in solution; dimer

| Protein | stoichiometry N [1] | stoichiometry N [2] |
| --- | --- | --- |
| B1 | 2 |  |
| B2 |  | 2 |
